Source: article PMC5527654

Each sequence was assayed against T1, 6xHis-PA3225 (Pseudomonas aeruginosa UCBPP-PA14) (UniProt A0A0H2ZDR5) (assay: EMSA).
T1 sequence: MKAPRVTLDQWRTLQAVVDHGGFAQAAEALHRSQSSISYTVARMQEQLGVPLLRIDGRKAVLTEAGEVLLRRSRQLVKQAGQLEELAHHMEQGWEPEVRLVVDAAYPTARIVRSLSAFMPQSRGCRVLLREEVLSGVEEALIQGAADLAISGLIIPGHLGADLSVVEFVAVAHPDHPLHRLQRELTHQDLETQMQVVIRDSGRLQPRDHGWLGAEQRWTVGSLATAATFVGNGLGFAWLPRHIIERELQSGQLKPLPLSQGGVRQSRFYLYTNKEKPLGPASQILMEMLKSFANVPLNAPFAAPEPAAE
For “ATGTGGTTGATCCAGTCAACTATTTTGCTTATTTTAGTTGACCTTATCAACCTTGTTTCAGGTTCTGAATATGGGCCATGGCGCCGGGTGGATAACCGGCCATCGAGCTAAAACGTTTCAGGTGTTTTCACGCGAGGCTTTCGGACGTTTACA (double strand) [Cy5-PmexAB-oprM probe 3]”, the binding was “binds”. “TAGTTGACTGGATCAACCACATTTACATTAGGTTTACTCGGCCAAACCAATGAACTACCCCGTGAATCCCGACCTGATGCCCGCGCTGATGGCGGTCTTCCAGCATGTACGGACGCGCATCCAGAGCGAGCTCGATT (double strand) [Cy5-PmexAB-oprM probe 2]” was tested, and the binding was “no binding”. “ATGGCTGGCGTTCGTTGCATAGCGTTGTCCTCATGAGCGAAAGCGGCCGATGCAGCGTGAAGGCGCTGCACCGGCTCGAAGAAGGCAGGCAAAATACTTACATTCATAGGTGTTTGTAAACGTCCGAAAGC (double strand) [Cy5-PmexAB-oprM probe 4]” was tested, and the binding was “no binding”.

The sequences below were run against T1, 6xHis-PA3225 (Pseudomonas aeruginosa UCBPP-PA14) (assay: competition).
For “ATGTGGTTGATCCAGTCAACTATTTTGCTTATTTTAGTTGACCTTATCAACCTTGTTTCAGGTTCTGAATATGGGCCATGGCGCCGGGTGGATAACCGGCCATCGAGCTAAAACGTTTCAGGTGTTTTCACGCGAGGCTTTCGGACGTTTACA (double strand) [PmexAB-oprM probe 3 unlabeled]”, the binding was “binds”. “TAGTTGACTGGATCAACCACATTTACATTAGGTTTACTCGGCCAAACCAATGAACTACCCCGTGAATCCCGACCTGATGCCCGCGCTGATGGCGGTCTTCCAGCATGTACGGACGCGCATCCAGAGCGAGCTCGATT (double strand) [PmexAB-oprM probe 2 unlabeled]” was tested, and the binding was “no binding”. With “ATGGCTGGCGTTCGTTGCATAGCGTTGTCCTCATGAGCGAAAGCGGCCGATGCAGCGTGAAGGCGCTGCACCGGCTCGAAGAAGGCAGGCAAAATACTTACATTCATAGGTGTTTGTAAACGTCCGAAAGC (double strand) [PmexAB-oprM probe 4 unlabeled]” the binding was “no binding”.
